# Measurements taken from paper PMC7251095.
# Molecular target: E. coli F1Fo ATP synthase subunit b (cysteine free) (E. coli) (UniProt P0ABA0)
# Experiment: cryo-EM structure; detergent-solubilized (digitonin) cysteine free E. coli F1Fo ATP synthase at 11 μM with 10 mM MgADP, 22 °C for 30 s before freezing; 300 kV; nine sub-states and a Fo focused map of Sub-state 3A
substance,measurement,value
E. coli F1Fo ATP synthase subunit b (cysteine free) (from UniProt P0ABA0 1-156) (natural protein),stoichiometry N,2
